Consider three molecules from patent publication US7288381 (PHADIA, dated 2007).

This test deals with T1, β-gal alone (λgt 11 phage control proteins) (UniProt P00722 2-1024 = β-galactosidase).
T1 construct: Negative control dot; also called β-gal alone (4); λgt 11 phage control proteins (4)
Nature of the test: dot blot of β-gal fusion proteins, anti-human Fab detection. On the procedure:
Expression of Recombinant Fragments of the Phl p 2 Allergen for Mapping of the Binding Sites of the Human IgE Fabs Lambda gt11 phage clones expressing β-galactosidase fused complete Phl p 2 and Phl p 2 fragments were generated as described (8). E. coli Y1090 were plated as confluent lawn onto LB plates containing 100 mg/l ampicillin (19). Two µl aliquots of phage lysates containing >10^6 plaque-forming units of each phage clone were dotted onto the E. coli lawn in defined order and plates were incubated at 43° C. until plaques became visible. The synthesis of recombinant protein was induced by overlay with 10 mM IPTG-soaked nitrocellulose filters (Schleicher& Schuell, Dassel, Germany) for additional 4 hours The clones which reacted with the IgE Fabs were identified by immunoscreening. For this purpose filters were washed twice for 5 min and once for 30 min with TBST containing 0.5% w/v BSA at roomtemperature and then probed overnight with E. coli extracts containing anti-Phl p 2 Fab and, for control purposes, with extracts from E. coli transformed with the empty pComb 3H plasmid at 4° C. After washing, the Fabs were detected with an alkaline phospatase-coupled goat anti-human Fab antiserum diluted 1:5000 in TBST/0.5% w/v BSA.
A Recombinant Fragment Comprising the N-terminal 64 Amino Acids of Phl p 2 Contains the Binding Site for the IgE Fabs In order to determine the binding site for the rPhl p 2-specific IgE Fabs, nitrocellulose-dotted complete β-gal-fused rPhl p 2 allergen (96 aa), a N-terminal rPhl p 2 fragment comprising the first 64 aa portion (1-64) and a 69 aa long C-terminal rPhl p 2 fragment (28-96 aa) were exposed to the Fabs (FIG. 2A). […] The N-terminal and C-terminal fragment have been indicated in the model (FIG. 2B).

T1 sequence (P00722 2-1024 limits assumed): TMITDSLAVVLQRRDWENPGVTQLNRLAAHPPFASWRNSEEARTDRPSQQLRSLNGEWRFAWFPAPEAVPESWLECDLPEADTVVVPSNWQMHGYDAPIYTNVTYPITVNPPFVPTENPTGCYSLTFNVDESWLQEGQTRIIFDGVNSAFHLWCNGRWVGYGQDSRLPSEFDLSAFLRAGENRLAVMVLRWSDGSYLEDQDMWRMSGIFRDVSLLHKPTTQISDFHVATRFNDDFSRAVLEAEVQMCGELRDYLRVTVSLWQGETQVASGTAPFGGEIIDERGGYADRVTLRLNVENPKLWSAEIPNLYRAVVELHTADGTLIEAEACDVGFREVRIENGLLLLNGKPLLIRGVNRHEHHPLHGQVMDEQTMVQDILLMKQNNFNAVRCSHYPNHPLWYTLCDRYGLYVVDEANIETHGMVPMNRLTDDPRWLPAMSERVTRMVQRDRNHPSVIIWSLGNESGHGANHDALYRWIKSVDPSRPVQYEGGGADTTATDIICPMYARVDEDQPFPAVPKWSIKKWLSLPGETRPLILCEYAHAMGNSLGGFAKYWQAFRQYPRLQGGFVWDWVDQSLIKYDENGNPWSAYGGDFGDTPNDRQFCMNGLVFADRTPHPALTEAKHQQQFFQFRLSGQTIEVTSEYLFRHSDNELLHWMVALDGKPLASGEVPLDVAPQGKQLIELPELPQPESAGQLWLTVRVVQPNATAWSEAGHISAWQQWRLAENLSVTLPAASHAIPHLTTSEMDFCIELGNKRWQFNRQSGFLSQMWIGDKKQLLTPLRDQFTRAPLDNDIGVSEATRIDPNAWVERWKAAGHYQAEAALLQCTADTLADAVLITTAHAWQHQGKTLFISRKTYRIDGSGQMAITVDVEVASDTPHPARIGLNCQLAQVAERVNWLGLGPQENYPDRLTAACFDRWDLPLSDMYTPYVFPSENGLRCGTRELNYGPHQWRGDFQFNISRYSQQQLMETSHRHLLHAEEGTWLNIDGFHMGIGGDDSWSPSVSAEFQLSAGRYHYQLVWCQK

B1: Phl p 2-specific human IgE Fab, clone 60 (Fab, V domains shown)
VH: LESGPGLVKPSQTLSLTCTVSGGSIRSGGYYWSWVRQPPGKGLEWIGNIYHSGNTYYNPSLKSRITMSVDTSKNHFSLRLTSVTAADTAVYYCARSDGYTLDNWGQGTLVTVSS
VL: ELTQSPSSLSASVGDRVTITCRARQSISTYLNWYQQKPGKAPKLLIWSASNLQSGVPSRFSGSGSGTEFTLTISNLQFEDFASYYCQQSYTTLYTFGSGTKLEIKR
notes: Human IgE Fab (Fd plus kappa light chain) expressed from pComb3H in E. coli and used as bacterial extract; also called rPhl p 2-specific IgE Fab; anti-Phl p 2 Fab
Consider B1, for which the binding result is on record as “no binding”.

B2: Phl p 2-specific human IgE Fab, clone 100 (Fab, V domains shown)
VH: LESGPGLVKPSQTLSLTCTVSGGSIRSGGYYWSWIRQPPGKGLEWIGYIYHSGNTYYNPSLKSRVTMSVDTSKNHFSLRLSSVTAADTAVYYCARSDGYTLDNWGQGTLVTVSS
VL: ELTQSPSSVSASVGDRVTITCRASQGISSWLAWYQHQPGKAPKLLIYSASSLQSGVPSRFSGSGYGTDFSLTISSLQFEDSATYYCQQANSFPYTFGQGTKVEIKR
notes: as for B1
For the molecule B2, the binding result is “no binding”.

B3: Phl p 2-specific human IgE Fab, clone 94 (Fab, V domains shown)
VH: LESGPGLVKPAQTLSLSCAVSGGSIRSGGYYWSWIRQHPGKGLEWIGYIYHSGNTYYNPSLKSRIAMSVDTSENKFSLRLNSVTAADTAVYYCARLDGYTLDIWGQGTLVTVSS
VL: ELTQSPSSLSASVGDRVTISCRASQRINTYLNWYQHKPGKAPKLLIYAASSLQSGVPSRFSGSGYGTDFTLTISSLQFEDFASYYCQESLSASYTFGQGTKVEIKR
notes: Human IgE Fab (heavy chain fragment Fd plus kappa light chain) expressed from pComb3H in E. coli and used as bacterial extract; they start at the Xho I / Sac I cloning sites; also called clone 94-derived IgE Fab; rPhl p 2-specific IgE Fab
On to B3, for which the binding result is recorded as “no binding”.
